For one molecule, activity results are on record in patent US20250092426, “CAS ENDONUCLEASES AND RELATED METHODS” (Flagship Pioneering Innovations VII, LLC, published 2025).

This data set concerns the target T1, CasEnd-6 (synthetic construct).
T1 chain: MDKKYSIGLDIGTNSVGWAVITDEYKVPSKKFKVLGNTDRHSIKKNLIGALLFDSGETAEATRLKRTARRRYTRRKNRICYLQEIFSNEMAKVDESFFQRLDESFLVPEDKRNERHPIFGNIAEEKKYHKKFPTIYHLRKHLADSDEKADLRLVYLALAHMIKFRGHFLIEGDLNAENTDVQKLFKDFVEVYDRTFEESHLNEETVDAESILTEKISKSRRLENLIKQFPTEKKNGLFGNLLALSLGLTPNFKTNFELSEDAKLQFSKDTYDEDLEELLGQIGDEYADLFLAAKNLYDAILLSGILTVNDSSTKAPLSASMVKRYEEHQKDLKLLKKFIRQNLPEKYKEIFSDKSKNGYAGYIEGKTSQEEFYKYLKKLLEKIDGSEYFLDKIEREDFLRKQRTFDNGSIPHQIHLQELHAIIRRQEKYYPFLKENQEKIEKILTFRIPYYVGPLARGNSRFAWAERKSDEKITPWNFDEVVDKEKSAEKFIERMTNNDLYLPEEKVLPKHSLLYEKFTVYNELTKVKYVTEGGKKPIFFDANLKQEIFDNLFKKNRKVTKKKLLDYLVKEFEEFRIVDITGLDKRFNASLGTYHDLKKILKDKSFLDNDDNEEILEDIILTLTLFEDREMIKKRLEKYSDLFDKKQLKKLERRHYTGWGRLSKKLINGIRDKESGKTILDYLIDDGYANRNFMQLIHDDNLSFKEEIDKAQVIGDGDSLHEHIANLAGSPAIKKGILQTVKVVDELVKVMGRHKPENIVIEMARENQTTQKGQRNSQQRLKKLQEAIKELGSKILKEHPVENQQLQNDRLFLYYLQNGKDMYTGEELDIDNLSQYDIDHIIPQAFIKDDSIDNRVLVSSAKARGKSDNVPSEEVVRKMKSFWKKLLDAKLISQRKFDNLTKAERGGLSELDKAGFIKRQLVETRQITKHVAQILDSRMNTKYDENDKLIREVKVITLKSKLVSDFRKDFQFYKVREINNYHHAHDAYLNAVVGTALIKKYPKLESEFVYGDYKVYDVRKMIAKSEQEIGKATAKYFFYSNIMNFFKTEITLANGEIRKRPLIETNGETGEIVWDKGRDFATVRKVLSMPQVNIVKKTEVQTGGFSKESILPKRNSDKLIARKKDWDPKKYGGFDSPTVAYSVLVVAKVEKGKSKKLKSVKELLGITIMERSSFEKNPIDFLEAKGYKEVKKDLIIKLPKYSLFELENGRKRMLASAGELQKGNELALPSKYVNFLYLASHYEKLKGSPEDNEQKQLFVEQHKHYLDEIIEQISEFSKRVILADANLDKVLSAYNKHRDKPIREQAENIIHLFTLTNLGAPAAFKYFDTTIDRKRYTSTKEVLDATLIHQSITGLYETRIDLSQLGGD
Kind of data set: cell_activity; +++; HEK293T; PAM not stated. The procedure:
The ability of the candidate endonucleases, including endonucleases 1-38 (CasEnds 1-38) (set forth in Table 1 and SEQ ID NOS: 1-38, respectively), to mediate target nucleic acid editing was assessed utilizing a blue fluorescent protein (BFP) to green fluorescent protein (GFP) conversion assay, wherein programmed nucleotide editing of the BFP gene was measured by the expression of GFP (signifying the conversion of […] via the programmed nucleotide edit in the BFP gene). The conversion assay was conducted utilizing the reverse transcriptase-based system (as described above in Example 2) comprising a template RNA (designed to convert BFP to GFP) and a fusion protein comprising a retroviral reverse transcriptase and the individual subject Cas endonuclease. The amino acid sequence of the base portion of the fusion protein (without the individual subject Cas endonuclease) is set forth in Table 7 (SEQ ID NO: 43).
Briefly, 200 ng of plasmid DNA encoding the subject fusion protein (containing one of the subject CasEnds) and 200 ng of template RNA (in plasmid format) were added to 25 μL SF buffer containing 250,000 HEK293T BFP-expressing cells. Nucleofection was mediated utilizing program DS-150. The day of nucleofection was marked as day 0. At day 4, the cells were harvested and analyzed by flow cytometry to assess the level of BFP and GFP expression in HEK293T cells. Cells having GFP signal were defined as having undergone a successful editing event, and the percent of cells that were GFP+ on day 4 was used to determine the performance of each Cas endonuclease.

Some results are limits rather than exact numbers.

B1: BFP-to-GFP template RNA ; BFP reporter protospacer (ssRNA ; dsDNA)
RNA: GCCGAAGCACUGCACGCCGUGUUUUAGAGCUAGAAAUAGCAAGUUAAAAUAAGGCUAGUCCGUUAUCAACUUGAAAAAGUGGCACCGAGUCGGUGCACCCUGACGUACGGCGUGCAGUGCUU
DNA 1: GCCGAAGCACTGCACGCCGT
DNA 2: ACGGCGTGCAGTGCTTCGGC
B1: the activity is ≥ 100 % of reference.
